Assay results: the supplement of paper PMC9170038

Tested on: MS2 coat protein
Test: apparent KD of MS2 coat protein; designed switch direction (-1 OFF switch, 1 ON switch): -1; higher = weaker reporter binding
Outline: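 Stalled E. coli RNA polymerase transcribed designed RNA switches on Illumina chips, which were then titrated with SNAP-549-labelled MS2 coat protein, doubling from 0.7 or 1.5 nM to 3 µM. Steps lasted from 0.8–1.5 h at the lowest concentration to 10–20 min at the highest. The apparent KD is each design's median over clusters of curve-fitted normalised fluorescence.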

[1] = Eterna round: R95, input ligand: FMN 200 uM
[2] = Eterna round: R95, input ligand: microRNA oligo, concentration not stated
[3] = Eterna round: R95, input ligand: none
[4] = input ligand: microRNA oligo, concentration not stated

Sequence	apparent KD of MS2 coat protein [1] [µM]	apparent KD of MS2 coat protein [2] [µM]	apparent KD of MS2 coat protein [3] [µM]	apparent KD of MS2 coat protein (input ligand: FMN 200 uM) [µM]	apparent KD of MS2 coat protein (input ligand: none) [µM]	apparent KD of MS2 coat protein [4] [µM]
UAUAAUUUUUUUUUUUUACAAGCUUUUUGCUCGUCUUAUACAUGAGGAUCACCCAUGUGGGUGAAAGAUAGAUUGUC [JMF's solution 2] (puzzle: Sensor v3, turn-off variant 2)	0.0377	0.0155	0.0412			
UAUACCCGAGGAUAUACAUGAGGAUCACCCAUGUAGUGAAAGCUCUAAGAGCGCUCAGGUAGAAGGCGGAUUAA [EX3 A.9] (Eterna round: R97, puzzle: Exclusion 3)				0.0249	0.0188	
UAUAUAUAGUAAGGAUAUGUAUAUAUGUUAUAAACAGAAGGUACUGACAUGAGGAUCACCCAUGUUUUAGUGUGGGCAUGUAGA [JMF's solution 59] (Eterna round: R96, puzzle: Exclusion NG 1)						0.0538
UAUAUGUCAGGAUAUUAGUAGUAAAUAAAUAAAAUUAUUACUGAGAAGGGACAUGAGGAUCACCCAUGUACCUU [Salish 062 v32] (Eterna round: R97, puzzle: Exclusion 4)				0.0161	0.0155	
UAUCAUGUAGGAUAUACGUAGCUAUGACCCUCGAGAACUAUACAUGAGGAUCACCCAUGUAGAAGGGCGACUUU [Eternabot (L1) Solution 34] (Eterna round: R97, puzzle: Exclusion 2)				0.0213	0.0172	
UAUCCACAUGAGGAUCACCCAUGUGAGGAUAUGAUACUAUGUACUUCGGUACAUAGUAUCAGAAGGCACAGGUC [Ex1-3: 57] (puzzle: Exclusion 1)		0.0203				
UAUCGGCGGACCGAGGCUUUUUGCUCGUCUUAUGCUACGACAUGAGGAUCACCCAUGUGGUGGUGGUCCGUUGUAGU [JL ViennaUCT Bitein mod 8] (puzzle: Sensor v3, turn-off variant 2)	0.123	0.0152	0.107			
UAUGGUAAAGUCAGGAUAUACGUGCAGAAUUCUAGGUAGAAGGGACAUGAGGAUCACCCAUGUAUGGUAGUGUU [Ex4 #44] (Eterna round: R97, puzzle: Brourd's mod of Exclusion 4)				0.146	0.104	
UAUGUGUGAGGAUAUGGUAAAGAUAAGAUGAUGAAAGAACUCCAGAAGGCACAUGAGGAUCACCCAUGUAGAUG [JL-ex4-2.10 Jieux mod] (puzzle: Exclusion 4)	0.0538	0.0372	0.0322			
UAUGUUGUUGUGAGGAUAUACUUAGUUUGACCGUAGUAGAAGGCACAUGAGGAUCACCCAUGUAGAUUUUUGGU [JR_BME4_Sub007] (puzzle: Brourd's mod of Exclusion 4)		0.00949				
UAUUAAACAUAGGAUAUCGAAUAUAUCAUUUAACGAGAAGGAUGAACAUGAGGAUCACCCAUGUGGUAUCAUGG [Mat - Exclusion 6 - JL Mod - D13] (puzzle: Exclusion 6)	0.196	0.269	0.41			
UAUUAACAAGUAAGAUCCCACAUGAGGAUCACCCAUGUGCUCGUCUUAUAAGGUACUGUGACGAAAGUCACGGUACC [Dup of Eli's R95 Sensor 3, v1 - 87] (Eterna round: R97, puzzle: Sensor, turn-off variant 1)				0.0163	0.0165	
UAUUAACAAGUAAGAUCCCACAUGAGGAUCACCCAUGUGCUCGUCUUAUAAGGUACUGUGACGAAAGUCACGGUACC [Sensor 3, v1 - 87] (Eterna round: R96, puzzle: Sensor v3, turn-off variant 1)				0.0138	0.0169	0.367
UAUUAACAAGUAAGAUCCCACAUGAGGAUCACCCAUGUGCUCGUCUUAUAAGGUACUGUGACGAAAGUCACGGUACC [Sensor 3, v1 - 87] (puzzle: Sensor v3, turn-off variant 1)	0.0169	0.953	0.013			
UAUUAGCAAGCAAAUGGGUACAUGAGGAUCACCCAUGUGCUCGUCUUAUAAGGUACUGUGACGACAGUCACGGUACC [mod--Eli4] (Eterna round: R97, puzzle: Sensor, turn-off variant 1)				0.0245	0.0253	
UAUUAGCAAGCAAGAUCCCACAUGAGGAUCACCCAUGUGCUCGUCUUAUAAGGUACUGUGACGAGAGUCACGGUACC [Mat - Sensor, turn-off var - Eli Mod - D47] (Eterna round: R97, puzzle: Sensor, turn-off variant 1)				0.0514	0.0542	
UAUUAGCAAGCGAGAUCCCACAUGAGGAUCACCCAUGUAAUAAGCAUCCAGAAUUACUGGGUGCAAGCUCGUCUUAU [Winner reversed engineered 10] (Eterna round: R97, puzzle: Sensor, turn-off variant 1)				0.0454	0.0429	

Sequence	apparent KD of MS2 coat protein [1] [µM]	apparent KD of MS2 coat protein [2] [µM]	apparent KD of MS2 coat protein [3] [µM]	apparent KD of MS2 coat protein (input ligand: FMN 200 uM) [µM]	apparent KD of MS2 coat protein (input ligand: none) [µM]	apparent KD of MS2 coat protein [4] [µM]
UAUUAGCAAGCGAGAUCCCACAUGAGGAUCACCCAUGUGCUCGCAUCCAGAAUUACUGGGUGCAAAGCUCGUCUUAU [Winner reversed engineered 8] (Eterna round: R97, puzzle: Sensor, turn-off variant 1)				0.0231	0.0233	
UAUUAGCAAGCGAGAUCCGACAUGAGGAUCACCCAUGUGCUCGUCUUAUAAGGGAGGGAGGGAAAACCCUCCCUCCC [Elimod 9 - Jieux - Sensor, turn-off variant 1] (Eterna round: R97, puzzle: Sensor, turn-off variant 1)				0.0195	0.0212	
UAUUAGCAAGCGAGAUCCUACAUGAGGAUCACCCAUGUGCUCGUCUUAUAAGGUACUGUGACGAAAGUCACGGUACC [Eli 91 v36] (Eterna round: R97, puzzle: Sensor, turn-off variant 1)				0.0182	0.0275	
UAUUAGCAAGCGAGGUCCCACAUGAGGAUCACCCAUGUGCUCGUCUUAUAAGGUACUGUGACGAAAGUCACGGUACC [Sensor 3, v1 - 91 v8] (Eterna round: R97, puzzle: Sensor, turn-off variant 1)				0.0147	0.0131	
UAUUAGUGAGGAUAUGAGUCGUAGAACAAUAGUACUACGUCUCAGAAGGCACAUGAGGAUCACCCAUGUUCCUU [Fiskers Ex 4 Super Stable 44 mod 35] (puzzle: Exclusion 4)		0.0136				
UAUUAGUGAGGAUAUGAGUCGUAGAACAAUAGUACUACGUCUCAGAAGGCACAUGAGGAUCACCCAUGUUCCUU [Mod of Fisker - Jieux - Exclusion 4] (Eterna round: R97, puzzle: Exclusion 4)				0.0713	0.0161	
UAUUAGUGAGGAUAUGAGUCGUAGAACAAUAGUACUACGUCUCAGAAGGUACAUGAGGAUCACCCAUGUUUCUC [Fiskers Ex 4 Super Stable 44 mod 33] (puzzle: Exclusion 4)		0.0188				
UAUUAUAAUGUAGGAUAUCUGCACGUUUAGUGCAGAGAAGGACAUGAGGAUCACCCAUGUAUAGUAGCUUCGGCUACAUUAUUU [ENG1-B2] (Eterna round: R96, puzzle: Exclusion NG 1)				0.103	0.0689	0.0522
UAUUCUGGAGGAUAUACAUGAGGAUCACCCAUGUAAAUUGUACAGAGCGGGAGUCUAUGUAGAAGGCUAGGACA [EX3 C.2] (Eterna round: R97, puzzle: Exclusion 3)				0.0608	0.0191	
UAUUUACAUGAGGAUCACCCAUGUCAGGAUAUGCGUCGAUCGUCGAAAGACGAUAGCCGCAGAAGGGACAAUAU [LRO-Excl01-20 mod derived from EliFisker 4.24] (Eterna round: R97, puzzle: Exclusion 1)				0.246	0.0831	
UAUUUAUAGCAAGGAUAUGAUUAUUAUUAUUUAUCAGAAGGUGCACAUGAGGAUCACCCAUGUUUUAUAUAUAAUAAUUUAAUU [Title] (Eterna round: R96, puzzle: Exclusion NG 1)						0.0825
UAUUUAUAUGAAGGAUAUACUUAACAUGAGGAUCACCCAUGUGGUGUUGUGAGUGAGUGAGUUUAGUAGAAGGUCAAGUAUUUU [JMF's solution 53] (Eterna round: R96, puzzle: Exclusion NG 2)				0.844	0.456	0.378
UAUUUGCAAGCGAGAUCCCACAUGAGGAUCACCCAUGUUCUUGGAAAGUACAGAAUUACUGUACAAGCUCGUCUUAU [Winner reversed engineered 32] (Eterna round: R97, puzzle: Sensor, turn-off variant 1)				0.0221	0.0257	
UCAAAGUCAGGAUAUACAUGAGGAUCACCCAUGUAAAAUUUUAAUUUAAUUUGAAGGUGUAGAAGGGACAAACC [Ex3 #33] (Eterna round: R97, puzzle: Exclusion 3)				0.0183	0.0316	
UCAAGCUUUAAGCGUGUGAACAUGAGGAUCACCCAUGUAUUUUUGGUUAGGAGUUCUGUAAGGGAUGCUCGUCUUAU [JR_SWV3TOV1_Sub093] (puzzle: Sensor v3, turn-off variant 1)	0.0374	0.0475	0.0507			
UCAGUUCUGCAAGGAUAUCGUCCUAGUUUGGUUCGAGAAGGUGCUUUUGUUUUUUCUUUGUGUUGACAUGAGGAUCACCCAUGU [JR_ExcNG1_Sub053] (Eterna round: R96, puzzle: Exclusion NG 1)				0.0207	0.0271	0.0138
